Experimental data as given in patent US20180208663A1 (AGENCY FOR SCIENCE TECHNOLOGY AND RESEARCH, published 2018).

Experiments:
[1] = target: T1, recombinant human γc (human, UniProt P31785 23-262, limits assumed); assay: ELISA, scFv titrated (nM) on γc (IL-2Rγc)
T1 construct: also called common γ chain; IL-2Rγ
T1 sequence (looked up): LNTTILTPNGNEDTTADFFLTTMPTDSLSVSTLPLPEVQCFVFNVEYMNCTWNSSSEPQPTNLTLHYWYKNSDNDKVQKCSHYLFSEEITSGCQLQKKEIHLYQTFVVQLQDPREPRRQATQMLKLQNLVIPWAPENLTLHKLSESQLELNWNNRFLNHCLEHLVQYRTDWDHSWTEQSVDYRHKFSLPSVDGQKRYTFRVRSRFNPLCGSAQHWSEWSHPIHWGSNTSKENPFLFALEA

[2] = target: T2, recombinant human IL-2Rβ (human, UniProt P14784 27-240); assay: ELISA, scFv titrated (nM) on IL-2Rβ
T2 construct: also called CD122; interleukin 2 receptor β
T2 sequence (looked up): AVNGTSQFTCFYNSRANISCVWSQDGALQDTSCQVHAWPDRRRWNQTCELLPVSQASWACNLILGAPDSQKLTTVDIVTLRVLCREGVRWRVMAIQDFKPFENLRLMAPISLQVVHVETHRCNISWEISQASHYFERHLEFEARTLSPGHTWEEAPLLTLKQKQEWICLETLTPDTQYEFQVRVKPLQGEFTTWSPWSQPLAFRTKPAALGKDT

B1: P1A3_FW2 single chain antibody (scFv)
scFv: EVQLVESGGGLVQPGGSLRLSCAASGGSFSGYYWSWVRQAPGKGLEWVSEINHSGSTNYNPSLKSRFTISRDNSKNTLYLQMNSLRAEDTAVYYCARSPGGYSGGYFQHWGQGTLVTVSSGGGGSGGGGSGGGGSDIQMTQSPSSLSASVGDRVTITCRSSQSLLHSNGYNYLDWYQQKPGKAPKLLIYLGSNRDSGVPSRFSGSGSGTDFTLTISSLQPEDFATYYCMQGTHWPWTFGQGTKVEIK
With B1 the “EC50 (read off the curve)” value [1] was about 60 nM.

B2: P2C4_FW2 single chain antibody (scFv)
scFv: EVQLVQSGAEVKKPGASVKVSCKASGYTFTNYYMHWVRQAPGQGLEWMGAIMPSRGGTSYPQKFQGRVTITADKSTSTAYMELSSLRSEDTAVYYCARGEYYYDSSGYYYWGQGTLVTVSSGGGGSGGGGSGGGGSQSVLTQPPSVSGAPGQRVTISCTGTSSDIGHYDFVSWYQQLPGTAPKLLIYDINNRPSGVPDRFSGSKSGTSASLAITGLQAEDEADYYCSAYTSSDTLVFGGGTKLTVL
With B2 the “EC50 (read off the curve)” value [2] was about 1 nM.
